# Data from publication PMC9482650, “Quantitative fragmentomics allow affinity mapping of interactomes” (Nature Communications, 2022).
# T1: RADIL, Q96JH8
# T1 sequence (Q96JH8 971-1071, limits assumed, looked up): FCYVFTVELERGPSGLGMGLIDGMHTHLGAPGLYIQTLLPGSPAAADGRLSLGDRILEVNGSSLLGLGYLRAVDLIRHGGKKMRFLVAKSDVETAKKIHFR
# T2: PCLO, Q9Y6V0
# T2 sequence (Q9Y6V0 4491-4600, limits assumed, looked up): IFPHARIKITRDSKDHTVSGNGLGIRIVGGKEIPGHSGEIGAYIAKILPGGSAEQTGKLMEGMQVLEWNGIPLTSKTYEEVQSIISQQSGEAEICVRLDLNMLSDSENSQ
# T3: FRMPD1, Q5SYB0
# T3 sequence (Q5SYB0 52-145, limits assumed, looked up): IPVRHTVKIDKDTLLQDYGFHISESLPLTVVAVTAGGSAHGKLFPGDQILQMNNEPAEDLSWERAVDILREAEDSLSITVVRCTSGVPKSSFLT
# T4: MPP2, Q14168
# T4 sequence (Q14168 180-250, limits assumed, looked up): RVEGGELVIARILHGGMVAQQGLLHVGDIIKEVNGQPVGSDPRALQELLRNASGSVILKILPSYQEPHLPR
# T5: DFNB31_2, Q9P202
# T5 sequence (Q9P202 274-371, limits assumed, looked up): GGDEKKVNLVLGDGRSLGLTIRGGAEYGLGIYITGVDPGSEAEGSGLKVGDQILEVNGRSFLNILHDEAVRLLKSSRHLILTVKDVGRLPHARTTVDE
# T6: SYNJ2BP, P57105
# T6 sequence (P57105 8-110, limits assumed, looked up): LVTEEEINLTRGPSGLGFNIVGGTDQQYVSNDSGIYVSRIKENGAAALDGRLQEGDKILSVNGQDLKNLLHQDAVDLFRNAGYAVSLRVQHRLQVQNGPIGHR
# T7: LIN7A, O14910
# T7 sequence (O14910 103-200, limits assumed, looked up): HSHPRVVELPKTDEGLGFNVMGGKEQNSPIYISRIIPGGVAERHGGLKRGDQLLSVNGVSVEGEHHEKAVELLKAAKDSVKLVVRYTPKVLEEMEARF
# T8: SNTG2, Q9NY99
# T8 sequence (Q9NY99 68-166, limits assumed, looked up): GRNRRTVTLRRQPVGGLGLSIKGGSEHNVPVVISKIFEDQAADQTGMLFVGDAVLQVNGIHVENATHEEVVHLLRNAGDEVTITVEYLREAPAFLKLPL
# T9: CARD11, Q9BXL7
# T9 sequence (Q9BXL7 662-765, limits assumed, looked up): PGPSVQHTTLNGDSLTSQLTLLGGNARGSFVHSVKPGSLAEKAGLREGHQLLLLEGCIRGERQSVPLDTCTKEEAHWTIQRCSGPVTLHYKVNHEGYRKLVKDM
# T10: RAPGEF6, Q8TEU7
# T10 sequence (Q8TEU7 525-625, limits assumed, looked up): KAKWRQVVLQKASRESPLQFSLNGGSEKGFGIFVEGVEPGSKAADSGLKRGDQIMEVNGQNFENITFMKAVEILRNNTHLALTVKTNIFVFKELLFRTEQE
# T11: MPP7, Q5T2T1
# T11 sequence (Q5T2T1 134-230, limits assumed, looked up): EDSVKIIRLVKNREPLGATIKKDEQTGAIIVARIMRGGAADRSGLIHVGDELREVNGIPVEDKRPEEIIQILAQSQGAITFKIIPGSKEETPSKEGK
# Assays:
# Assay in all cases: holdup assay
# Set-up in all cases: key: below the threshold = too weak to quantify, mostly under pKd 3.1 to 4
# RADIL, Q96JH8 = biological target: T1, RADIL, Q96JH8
# DLG1_1, Q12959 = biological target: DLG1_1, Q12959
# PICK1, Q9NRD5 = biological target: PICK1, Q9NRD5
# PICK1, Q9NRD5, sequence (Q9NRD5 17-115): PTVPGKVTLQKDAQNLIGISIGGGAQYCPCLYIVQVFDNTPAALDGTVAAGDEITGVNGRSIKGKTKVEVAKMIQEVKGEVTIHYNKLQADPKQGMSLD
# PCLO, Q9Y6V0 = biological target: T2, PCLO, Q9Y6V0
# LAP2, Q96RT1 = biological target: LAP2, Q96RT1
# LAP2, Q96RT1, sequence (Q96RT1 other isoform, or with tags, fused parts or gaps): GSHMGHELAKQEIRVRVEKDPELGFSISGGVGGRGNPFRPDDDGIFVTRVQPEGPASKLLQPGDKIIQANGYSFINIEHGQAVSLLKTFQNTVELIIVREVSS
# FRMPD1, Q5SYB0 = biological target: T3, FRMPD1, Q5SYB0
# FRMPD2_3, Q68DX3 = biological target: FRMPD2_3, Q68DX3
# FRMPD2_3, Q68DX3, sequence (Q68DX3 1073-1166): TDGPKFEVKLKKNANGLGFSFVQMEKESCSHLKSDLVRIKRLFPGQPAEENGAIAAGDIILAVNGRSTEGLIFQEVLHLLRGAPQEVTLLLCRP
# MPP2, Q14168 = biological target: T4, MPP2, Q14168
# Inadl_2, Q8NI35 = biological target: Inadl_2, Q8NI35
# Inadl_2, Q8NI35, sequence (Q8NI35 238-335): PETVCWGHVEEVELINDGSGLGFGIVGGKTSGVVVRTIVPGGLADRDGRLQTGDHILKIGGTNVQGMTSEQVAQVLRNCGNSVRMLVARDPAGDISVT
# DFNB31_2, Q9P202 = biological target: T5, DFNB31_2, Q9P202
# IL16_1, Q14005 = biological target: IL16_1, Q14005
# IL16_1, Q14005, sequence (Q14005 210-306): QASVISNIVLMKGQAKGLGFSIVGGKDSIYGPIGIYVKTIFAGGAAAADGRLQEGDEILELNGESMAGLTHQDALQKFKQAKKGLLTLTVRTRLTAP
# SYNJ2BP, P57105 = biological target: T6, SYNJ2BP, P57105
# MAGI3_2, Q5TCQ9 = biological target: MAGI3_2, Q5TCQ9
# MAGI3_2, Q5TCQ9, sequence (Q5TCQ9 398-503): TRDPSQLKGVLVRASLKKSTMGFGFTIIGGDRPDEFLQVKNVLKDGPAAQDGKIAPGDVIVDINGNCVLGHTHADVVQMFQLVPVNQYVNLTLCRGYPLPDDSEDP
# LIN7A, O14910 = biological target: T7, LIN7A, O14910
# MAGI2_6, Q86UL8 = biological target: MAGI2_6, Q86UL8
# MAGI2_6, Q86UL8, sequence (Q86UL8 1141-1229): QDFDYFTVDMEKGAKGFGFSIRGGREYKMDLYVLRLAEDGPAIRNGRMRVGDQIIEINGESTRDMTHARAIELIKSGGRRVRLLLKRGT
# SNTG2, Q9NY99 = biological target: T8, SNTG2, Q9NY99
# GORASP1, Q9BQQ3 = biological target: GORASP1, Q9BQQ3
# GORASP1, Q9BQQ3, sequence (Q9BQQ3 1-208): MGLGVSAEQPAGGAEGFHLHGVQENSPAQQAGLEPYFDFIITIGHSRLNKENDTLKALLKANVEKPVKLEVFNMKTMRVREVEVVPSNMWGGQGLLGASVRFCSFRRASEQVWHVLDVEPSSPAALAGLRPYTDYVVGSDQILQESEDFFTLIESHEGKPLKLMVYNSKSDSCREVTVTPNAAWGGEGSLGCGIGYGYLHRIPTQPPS
# GRASP, Q7Z6J2 = biological target: GRASP, Q7Z6J2
# GRASP, Q7Z6J2, sequence (Q7Z6J2 96-193): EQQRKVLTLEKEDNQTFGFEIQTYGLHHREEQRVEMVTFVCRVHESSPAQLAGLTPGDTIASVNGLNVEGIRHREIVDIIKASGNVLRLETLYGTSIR
# CARD11, Q9BXL7 = biological target: T9, CARD11, Q9BXL7
# LNX1_1, Q8TBB1 = biological target: LNX1_1, Q8TBB1
# LNX1_1, Q8TBB1, sequence (Q8TBB1 261-371): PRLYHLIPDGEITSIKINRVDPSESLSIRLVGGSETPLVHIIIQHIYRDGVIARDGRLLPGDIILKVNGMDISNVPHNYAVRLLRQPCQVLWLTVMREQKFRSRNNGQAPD
# SCRIB_1, Q14160 = biological target: SCRIB_1, Q14160
# SCRIB_1, Q14160, sequence (Q14160 718-814): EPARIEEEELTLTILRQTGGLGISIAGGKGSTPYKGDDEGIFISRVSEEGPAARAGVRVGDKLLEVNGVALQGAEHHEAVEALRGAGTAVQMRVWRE
# RAPGEF6, Q8TEU7 = biological target: T10, RAPGEF6, Q8TEU7
# TJP2_1, Q9UDY2 = biological target: TJP2_1, Q9UDY2
# TJP2_1, Q9UDY2, sequence (Q9UDY2 24-128): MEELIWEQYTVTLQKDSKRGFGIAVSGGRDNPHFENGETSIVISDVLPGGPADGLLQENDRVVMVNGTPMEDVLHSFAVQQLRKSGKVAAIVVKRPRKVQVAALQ
# NHERF4_2, Q86UT5 = biological target: NHERF4_2, Q86UT5
# NHERF4_2, Q86UT5, sequence (Q86UT5 220-308): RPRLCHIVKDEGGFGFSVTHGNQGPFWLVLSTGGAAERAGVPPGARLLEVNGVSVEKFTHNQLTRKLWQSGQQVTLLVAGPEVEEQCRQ
# MAGI1_2, Q96QZ7 = biological target: MAGI1_2, Q96QZ7
# MAGI1_2, Q96QZ7, sequence (Q96QZ7 456-580): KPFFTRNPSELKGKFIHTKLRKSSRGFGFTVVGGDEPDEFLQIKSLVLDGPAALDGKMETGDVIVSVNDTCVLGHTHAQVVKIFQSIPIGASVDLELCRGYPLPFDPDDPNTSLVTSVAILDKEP
# GRIP2_3, Q9C0E4 = biological target: GRIP2_3, Q9C0E4
# GRIP2_3, Q9C0E4, sequence (Q9C0E4 238-339): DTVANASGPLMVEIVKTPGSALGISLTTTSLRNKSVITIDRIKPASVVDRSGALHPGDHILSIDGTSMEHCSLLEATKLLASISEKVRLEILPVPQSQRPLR
# MPP7, Q5T2T1 = biological target: T11, MPP7, Q5T2T1
# [1] = plain residues with an end cap or a label only (N-terminal biotin on a linker: ahx)
# [2] = plain residues with an end cap or a label only (N-terminal biotin on a linker: ttds)
# [3] = plain residues with an end cap or a label only (N-terminal biotin on a linker: ado-ado)
binder,measurement,setting,value
"VNENQKEYFF [CNTNAP4, Q9C0A0]",pKd,"RADIL, Q96JH8; [1]",4.3
same,pKd,"DLG1_1, Q12959; [1]",below the threshold
same,pKd,"PICK1, Q9NRD5; [1]",below the threshold
same,pKd,"PCLO, Q9Y6V0; [1]",below the threshold
same,pKd,"LAP2, Q96RT1; [1]",below the threshold
same,pKd,"FRMPD1, Q5SYB0; [1]",below the threshold
same,pKd,"FRMPD2_3, Q68DX3; [1]",below the threshold
same,pKd,"MPP2, Q14168; [1]",below the threshold
same,pKd,"Inadl_2, Q8NI35; [1]",5.4
same,pKd,"DFNB31_2, Q9P202; [1]",below the threshold
same,pKd,"IL16_1, Q14005; [1]",below the threshold
same,pKd,"SYNJ2BP, P57105; [1]",below the threshold
same,pKd,"MAGI3_2, Q5TCQ9; [1]",below the threshold
same,pKd,"LIN7A, O14910; [1]",below the threshold
same,pKd,"MAGI2_6, Q86UL8; [1]",3.51
same,pKd,"SNTG2, Q9NY99; [1]",below the threshold
same,pKd,"GORASP1, Q9BQQ3; [1]",below the threshold
same,pKd,"GRASP, Q7Z6J2; [1]",below the threshold
same,pKd,"CARD11, Q9BXL7; [1]",below the threshold
same,pKd,"LNX1_1, Q8TBB1; [1]",below the threshold
same,pKd,"SCRIB_1, Q14160; [1]",below the threshold
same,pKd,"RAPGEF6, Q8TEU7; [1]",below the threshold
same,pKd,"TJP2_1, Q9UDY2; [1]",below the threshold
same,pKd,"NHERF4_2, Q86UT5; [1]",below the threshold
same,pKd,"MAGI1_2, Q96QZ7; [1]",below the threshold
same,pKd,"GRIP2_3, Q9C0E4; [1]",below the threshold
same,pKd,"MPP7, Q5T2T1; [1]",5.02
"PSRDRKETSI [RALBP1, Q15311]",pKd,"RADIL, Q96JH8; [2]",below the threshold
same,pKd,"DLG1_1, Q12959; [2]",3.79
same,pKd,"PICK1, Q9NRD5; [2]",below the threshold
same,pKd,"PCLO, Q9Y6V0; [2]",below the threshold
same,pKd,"LAP2, Q96RT1; [2]",3.37
same,pKd,"FRMPD1, Q5SYB0; [2]",below the threshold
same,pKd,"FRMPD2_3, Q68DX3; [2]",below the threshold
same,pKd,"MPP2, Q14168; [2]",below the threshold
same,pKd,"Inadl_2, Q8NI35; [2]",below the threshold
same,pKd,"DFNB31_2, Q9P202; [2]",below the threshold
same,pKd,"IL16_1, Q14005; [2]",below the threshold
same,pKd,"SYNJ2BP, P57105; [2]",4.7
same,pKd,"MAGI3_2, Q5TCQ9; [2]",4.76
same,pKd,"LIN7A, O14910; [2]",below the threshold
same,pKd,"MAGI2_6, Q86UL8; [2]",below the threshold
same,pKd,"SNTG2, Q9NY99; [2]",4.32
same,pKd,"GORASP1, Q9BQQ3; [2]",3.38
same,pKd,"GRASP, Q7Z6J2; [2]",below the threshold
same,pKd,"CARD11, Q9BXL7; [2]",below the threshold
same,pKd,"LNX1_1, Q8TBB1; [2]",below the threshold
same,pKd,"SCRIB_1, Q14160; [2]",4.49
same,pKd,"RAPGEF6, Q8TEU7; [2]",below the threshold
same,pKd,"TJP2_1, Q9UDY2; [2]",below the threshold
same,pKd,"NHERF4_2, Q86UT5; [2]",below the threshold
same,pKd,"MAGI1_2, Q96QZ7; [2]",3.91
same,pKd,"GRIP2_3, Q9C0E4; [2]",below the threshold
same,pKd,"MPP7, Q5T2T1; [2]",below the threshold
"SQDPKKPSRV [CBY2, Q8NA61]",pKd,"RADIL, Q96JH8; [3]",3.61
same,pKd,"DLG1_1, Q12959; [3]",below the threshold
same,pKd,"PICK1, Q9NRD5; [3]",4.21
same,pKd,"PCLO, Q9Y6V0; [3]",below the threshold
same,pKd,"LAP2, Q96RT1; [3]",below the threshold
same,pKd,"FRMPD1, Q5SYB0; [3]",below the threshold
same,pKd,"FRMPD2_3, Q68DX3; [3]",below the threshold
same,pKd,"MPP2, Q14168; [3]",below the threshold
same,pKd,"Inadl_2, Q8NI35; [3]",below the threshold
same,pKd,"DFNB31_2, Q9P202; [3]",below the threshold
same,pKd,"IL16_1, Q14005; [3]",below the threshold
same,pKd,"SYNJ2BP, P57105; [3]",3.66
same,pKd,"MAGI3_2, Q5TCQ9; [3]",4.44
same,pKd,"LIN7A, O14910; [3]",below the threshold
same,pKd,"MAGI2_6, Q86UL8; [3]",below the threshold
same,pKd,"SNTG2, Q9NY99; [3]",below the threshold
same,pKd,"GORASP1, Q9BQQ3; [3]",below the threshold
same,pKd,"GRASP, Q7Z6J2; [3]",below the threshold
same,pKd,"CARD11, Q9BXL7; [3]",below the threshold
same,pKd,"LNX1_1, Q8TBB1; [3]",3.5
same,pKd,"SCRIB_1, Q14160; [3]",below the threshold
same,pKd,"RAPGEF6, Q8TEU7; [3]",below the threshold
same,pKd,"TJP2_1, Q9UDY2; [3]",below the threshold
same,pKd,"NHERF4_2, Q86UT5; [3]",below the threshold
same,pKd,"MAGI1_2, Q96QZ7; [3]",below the threshold
same,pKd,"GRIP2_3, Q9C0E4; [3]",below the threshold
same,pKd,"MPP7, Q5T2T1; [3]",below the threshold
